These results are taken from paper PMC11214832.

The assay has as its target SARS-CoV-2 Nsp15 catalytically inactive mutant H234A (SARS-CoV-2). The assay is described as follows: cryo-EM structure.

The term stoichiometry N denotes a count of units in the complex or per binding partner.

“SARS-CoV-2 Nsp15 catalytically inactive mutant H234A (enzyme)” displayed a stoichiometry N of 6.
